Consider 7 molecules from patent US20170022273A1 (SORRENTO THERAPEUTICS, published 2017).

Experiment [1] deals with T1, Recombinant human LAG3/His (human, UniProt P18627 23-450).
T1 construct: Analyte in the Biacore assay, serially diluted in HBS-EP; not shown: His tag
T1 sequence (looked up): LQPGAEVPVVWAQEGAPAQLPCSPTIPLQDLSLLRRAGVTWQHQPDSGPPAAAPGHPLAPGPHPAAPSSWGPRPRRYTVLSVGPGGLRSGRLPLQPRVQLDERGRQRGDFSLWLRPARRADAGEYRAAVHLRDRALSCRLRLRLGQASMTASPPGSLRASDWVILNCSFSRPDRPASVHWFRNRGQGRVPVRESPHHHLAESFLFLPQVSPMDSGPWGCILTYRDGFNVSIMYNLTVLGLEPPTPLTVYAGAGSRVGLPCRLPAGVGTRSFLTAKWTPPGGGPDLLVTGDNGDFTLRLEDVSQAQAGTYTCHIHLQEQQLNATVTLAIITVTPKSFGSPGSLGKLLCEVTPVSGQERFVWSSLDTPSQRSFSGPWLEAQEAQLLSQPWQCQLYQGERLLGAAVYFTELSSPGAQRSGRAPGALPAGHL
In words: Biacore SPR, antibody captured on anti-human Fc CM5 chip, LAG3/His as analyte, 1:1 Langmuir fit. Here is the method: The binding affinity of antibody L3C5 for human LAG3 was also tested using a BiaCore assay. […] Biacore was used to measure the affinity of LAG3 antibody L3C5. Anti-human Fc antibody (GE, BR-1008-39) was immobilized on CM5 sensor chip to approximately 5000 RU using standard NHS/EDC coupling methodology. Antibody (approximately 2 ug/ml) were captured for 60 s at a flow rate 10 uL/min. Recombinant human LAG3/His was serially diluted in running buffer (HBS-EP). All measurements were conducted with a flow rate of 30 μL/min Surfaces were regenerated with 3M MgCl2 (from human antibody kit) for 60 s. A 1:1 (Langmuir) binding model was used to fit the data.

Experiment [2] has as its target T2, recombinant human LAG3/Fc (human, UniProt P18627 23-450).
T2 construct: Coated on the ELISA plate at 2 ug/mL; not shown: Fc part of the LAG3/Fc fusion
T2 sequence (looked up): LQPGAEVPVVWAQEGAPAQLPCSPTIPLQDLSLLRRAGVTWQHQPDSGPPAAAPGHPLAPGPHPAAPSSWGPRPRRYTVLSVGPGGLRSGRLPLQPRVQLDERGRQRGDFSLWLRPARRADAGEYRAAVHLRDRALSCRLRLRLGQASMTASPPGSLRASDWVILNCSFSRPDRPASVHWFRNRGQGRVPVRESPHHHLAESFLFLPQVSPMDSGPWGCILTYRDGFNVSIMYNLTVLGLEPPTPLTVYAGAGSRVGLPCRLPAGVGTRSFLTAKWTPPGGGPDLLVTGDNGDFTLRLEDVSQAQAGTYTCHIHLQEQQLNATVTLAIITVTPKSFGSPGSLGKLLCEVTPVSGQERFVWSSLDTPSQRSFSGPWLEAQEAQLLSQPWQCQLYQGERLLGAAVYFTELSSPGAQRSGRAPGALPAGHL
Briefly: ELISA, plate coated with 2 ug/mL recombinant human LAG3/Fc, IgG about 5ug/ml. Here is the method: (§1) An analysis of the cross-reactivity of various LAG3 antibodies to recombinant mouse LAG3 and human LAG3 was also performed. A Maxisorb ELISA plate was coated with 2 ug/mL recombinant human, and mouse LAG3/Fc (blank: PBS). Incubated overnight at 4° C. The plate was washed 3 times with PBS-Tween (PBST), then blocked with Casein blocking buffer for 1 hour at room temperature. Next, IgGs diluted in casein (about 5ug/ml) were added, and incubated 30 min with shaking. The plate was washed 3 times with PBST. Horseradish peroxidase (HRP)-conjugated goat anti-human Lambda HRP (1:1000 in casein) was added, then 3,3′,5,5′-Tetramethylbenzidine (TMB) was added as substrate and developed 30 min 2M H2SO4 was used to stop the reaction and the OD was read at 450 nm Anti-AIP antibody C7 was used as a control antibody.
A general note: In an ELISA, binding on a coated surface is turned into a signal by an enzyme label.

Experiment [3] addresses T3, recombinant mouse LAG3/Fc (mouse, UniProt Q61790 24-442).
T3 construct: Coated on the ELISA plate at 2 ug/mL; not shown: Fc part of the LAG3/Fc fusion
T3 sequence (looked up): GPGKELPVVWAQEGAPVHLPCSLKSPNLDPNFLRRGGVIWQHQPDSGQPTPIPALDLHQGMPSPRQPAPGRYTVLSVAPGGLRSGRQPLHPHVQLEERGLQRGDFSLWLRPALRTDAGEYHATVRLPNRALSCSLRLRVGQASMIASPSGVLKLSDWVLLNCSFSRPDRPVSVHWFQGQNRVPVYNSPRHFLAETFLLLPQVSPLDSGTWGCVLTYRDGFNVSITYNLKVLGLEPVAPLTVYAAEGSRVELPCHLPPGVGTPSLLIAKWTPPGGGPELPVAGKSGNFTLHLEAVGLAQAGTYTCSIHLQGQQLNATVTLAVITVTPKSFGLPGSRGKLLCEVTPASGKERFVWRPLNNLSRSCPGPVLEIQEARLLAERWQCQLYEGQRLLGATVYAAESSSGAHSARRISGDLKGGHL
Briefly: ELISA, plate coated with 2 ug/mL recombinant mouse LAG3/Fc, anti-human Lambda HRP detection. Here is the method: as §1

B1: L3C5 (antibody, V domains shown)
VH: QVQLVQSGSELKKPGASVKVSCKASGYTFTNYYMHWVRQAPGQGLEWMGIINPSGGATNYAQKFQGRVTMTRDTSTSTVYMELSSLRSEDTAVYYCARDSGYDLGYGMDVWGQGTLVTVSS
VL: QSVLTQPASVSGSPGQSITISCTGTSSDVGGYNYVSWYQQHPGKAPKLMIYDVSNRPSGASNRFSGSKSGNTASLTISGLQAEDEADYYCSSYTNRNTLLFGGGTKLTVL
notes: Captured on an anti-human Fc antibody chip in the Biacore assay, so a whole antibody with a human Fc; also called LAG3 antibody L3C5; 13
For B1, in experiment [1], the Ka turned out to be 6.6e+06 M⁻¹, the equilibrium dissociation constant (Kd) was 152 nM, the off-rate constant (koff) amounted to 0.0717 s⁻¹ and the kon was 473000 M⁻¹ s⁻¹.

B2: L33H11 (antibody, V domains shown)
VH: QVQLVQSGAEVKKPGASVKVSCKASGYTFTSYYMHWVRQAPGQGLEWMGIINPSAGSTSYAQKFQGRVTMTRDTSTSTVYMELSSLRSEDTAVYYCARELMATGGFDYWGQGTLVTVSS
VL: LPVLTQPASVSGSPGQSITISCTGTSSDVGGYNYVSWYQQHPGKAPKLMIYDVTNRPSGVSNRFSGSKSGNTASLTISGLQAEDEADYYCSSYTSSNTLLFGGGTQLTVL
notes: Tested as a fully human IgG with a lambda light chain; also called anti-hLAG3 antibody L33H11
As to B2, the values for the binding result in experiment [2] and in experiment [3] were “binds” and “no binding (tested: about 5ug/ml)”, respectively.

B3: L35G6 (antibody, V domains shown)
VH: QVQLVQSGAEVKKPGASVKVSCKASGYTFTSYYMHWVRQAPGQGLEWMGIINPSAGSTSYAQKFQGRVTMTRDTSTSTVYMELSSLRSEDTAVYYCARELMATGGFDYWGQGTLVTVSS
VL: QAGLTQPASVSGSPGQSITISCTGSSSDVGGYSYVSWYQKHPGKAPKLMIYDVTNRPSGVSNRFSGSKSGNTASLTISGLQAEDEADYYCSTYTRSNTLVFGPGTKVTVL
notes: Tested as a fully human IgG with a lambda light chain (detected with anti-human Lambda HRP); also called anti-hLAG3 antibody L35G6
Turning to B3, the binding result in experiment [2] is recorded as “binds”; in experiment [3], “no binding (tested: about 5ug/ml)”.

B4: L32D10 (antibody, V domains shown)
VH: QVQLVQSGAEVKKPGASVKVSCKASGYTFTSYYMHWVRQAPGQGLEWMGIINPSAGSTSYAQKFQGRVTMTRDTSTSTVYMELSSLRSEDTAVYYCARELMATGGFDYWGQGTLVTVSS
VL: QSVLTQPPSASGSPGQSVTISCTGTSSDVGGYDYVSWYQQHQGKAPKLMIYDVSNRPSGVSNRFSGSKSGNTASLTISGLQAEDEADYYCSSYTSSTTLVFGGGTKLTVL
notes: Tested as a fully human IgG with a lambda light chain; also called anti-hLAG3 antibody L32D10
Take B4: the values for the binding result in experiment [2] and in experiment [3] were “binds” and “no binding (tested: about 5ug/ml)”, respectively.

B5: L35D4 (antibody, V domains shown)
VH: QVQLVQSGAEVKKPGASVKVSCKASGYTFTSYYMHWVRQAPGQGLEWMGIINPSAGSTSYAQKFQGRVTMTRDTSTSTVYMELSSLRSEDTAVYYCARELMATGGFDYWGQGTLVTVSS
VL: QSVLTQPPSASGSPGQSVTISCTGTSSDVGGYNYVSWYQQYPGKAPRLMIFEVTERASGVPDRFSGSKSGNTASLTVSGLQTEDEAVYFCSSYSGSNNPGAMFGGGTKLTVL
notes: Tested as a fully human IgG with a lambda light chain; also called anti-hLAG3 antibody L35D4
For B5, the results for the binding result in experiment [2] and in experiment [3] were “binds” and “no binding (tested: about 5ug/ml)”, respectively.

B6: L32A4 (antibody, V domains shown)
VH: QVQLVQSGAEVKKPGASVKVSCKASGYTFTSYYMHWVRQAPGQGLEWMGIINPSAGSTSYAQKFQGRVTMTRDTSTSTVYMELSSLRSEDTAVYYCARELMATGGFDYWGQGTLVTVSS
VL: QSVLTQPASVSGSPGQSITISCTGTSSDIGAYNFVSWYQQHPGKAPKLMIYGVSNRPSGVSSRFSGSKSGSTASLTISGLQAEDEADYYCSSYTTSGSAVFGTGTKLTVL
notes: Tested as a fully human IgG with a lambda light chain; also called anti-hLAG3 antibody L32A4
B6: the binding result is reported as “binds” in experiment [2] and “no binding (tested: about 5ug/ml)” in experiment [3].

B7: L32A9 (antibody, V domains shown)
VH: QVQLVQSGAEVKKPGASVKVSCKASGYTFTSYYMHWVRQAPGQGLEWMGIINPSAGSTSYAQKFQGRVTMTRDTSTSTVYMELSSLRSEDTAVYYCARELMATGGFDYWGQGTLVTVSS
VL: QSVVTQPPSVSAAPGQKVTISCSGSSSNIGNNYVSWYQQLPGTAPKLLIYDNNKRHSGIPDRFSGSTSDTSATLGITRLQTGDEADYYCGTWDSSLSAYVFGTGTKVTVL
notes: Tested as a fully human IgG with a lambda light chain; also called anti-hLAG3 antibody L32A9
On to B7, for which the results for the binding result in experiment [2] and in experiment [3] were “binds” and “no binding (tested: about 5ug/ml)”, respectively.

One may read the Kd as a measure of binding affinity in units of concentration. By koff is commonly meant the rate constant with which the complex falls apart. Usually kon stands for the second-order rate constant of association.
